The values that follow come from US20040014134.

The series deals with Fusion protein B (variant 2; rsGFP - cleavage site segment with TEV protease cleavage site - DsRed).

B1: TEV protease (protease from the tobacco etch virus) (protein)
chain: GESLFKGPRDYNPISSTICHLTNESDGHTTSLYGIGFGPFIITNKHLFRRNNGTLLVQSLHGVFKVKNTTTLQQHLIDGRDMIIIRMPKDFPPFPQKLKFREPQREERICLVTTNFQTKSMSSMVSDTSCTFPSSDGIFWKHWIQTKDGQCGSPLVSTRDGFIVGIHSASNFTNTNNYFTSVPKNFMELLTNQEAQQWVSGWRLNADSVLWGGHKVFMSKPEEPFQPVKEATQLMNELVYSQ
For B1, the “two-photon cross-correlation amplitude (dual-colour FCS protease cleavage assay)” value was “The cleavage of the bond and the consequent reduction of the proportion of double fluorescing molecules in the measurement solution cause the decrease of the cross-correlation amplitude”.
